Experimental findings from US8071348B2, “Protein tyrosine phosphatase substrate-trapping double mutant and uses thereof” (Albert Einstein College of Medicine of Yeshiva University, priority 2002, dated 2011) are described below.

Data set [1] in a line: Kinetic constants for PTP1B-catalyzed hydrolysis of pNPP. Format: biochemical. To be noted: pNPP as substrate. The text has this:
The catalytic domain of PTP1B (residues 1 to 321) was used for in vitro study. PTP1B mutants, C215S, D181A, and Q262A, were described previously (9, 25, 26). PTP1B double mutants, D181A/C215S and C215S/Q262A, were generated by PCR reactions, according to the standard procedure of the Quick-Change™ site-directed mutagenesis kit (Stratagene), using pT7-7/PTP1B/C215S as a template. PTP1B double mutants, D181A/C215E and D181A/Q262A, were generated by similar PCR procedures, using pT7-7/PTP1B/D181A as a template. The recombinant wild-type and mutant PTP1Bs were expressed in E. coli, and purified to homogeneity as described (25, 27). Protein concentration was determined from absorbance measurement at 280 nm, using an absorbance coefficient of 1.24 for 1 mg/ml PTP1B.
PTP activity was assayed at 25° C. and pH 7.0, in a reaction mixture (0.2 ml) containing pNPP concentrations ranging from 0.2 to 5 Km. The following buffered solution was used for activity measurements: pH 7.0, 50 mM 3,3-dimethylglutarate, 1 mM EDTA; the ionic strength was 0.15 M, as adjusted by addition of NaCl. Initial rate measurements for the enzyme-catalyzed hydrolysis of pNPP were conducted as previously described (26). Michaelis-Menten kinetic parameters were determined from a direct fit of the data to the Michaelis-Menten equation, using the nonlinear regression program, KINETASYST (Intellikinetics, State College, Pa.).

Data set [2] has as its target T1, Ac-Asp-Ala-Asp-Glu-F2Pmp-Leu-NH2.
T1 construct: Synthetic hexapeptide printed in three-letter code; also called F2Pmp-containing peptide; non-hydrolyzable substrate analog
T1 peptide: Ac-DADE[F2Pmp]L-NH2
As to the kind of experiment: ITC, 25 C, pH 7.0. On the procedure:
(§1) All isothermal titration calorimetry experiments were performed using an MCS Isothermal Titration Calorimetry System from Microcal Inc. (Northampton, Mass.). Experiments at pH 7.0 were conducted at 25° C., in 50 mM 3,3-dimethylglutarate buffer containing 1 mM DTT. The ionic strength of the buffer was adjusted to 0.15 M by addition of NaCl. Protein concentration in the calorimeter cell was 27-85 µM, while the ligand concentration in the syringe was 0.37-1 mM.
The PTP1B samples used in the isothermal titration calorimetry experiments were dialyzed completely against buffer. High-concentration stock solutions were prepared for ligands with distilled water, and adjusted to pH 7.0. […] Protein dilution during titration was determined by titration of buffer into the protein solution. […] The heat of ligand dilution was corrected by subtracting the average heat of injection after saturation.
(§2) A typical titration curve and binding isotherm for the binding of D181A/Q262A to Ac-Asp-Ala-Asp-Glu-F_2Pmp-Leu-NH_2 is shown in FIG. 3. From curve-fitting of the binding isotherms, the stoichiometry for the binding of the peptide to D181A/Q262A was determined to be 1:1.

Data set [3] deals with T2, EGFR 988-998 peptide DADEpYLIPQQG.
T2 chain: DADEXLIPQQG

Data set [4] concerns the target T1, Ac-Asp-Ala-Asp-Glu-F2Pmp-Leu-NH2. As to the kind of experiment: ITC, 25 C, pH 7.0. Here is the method:
as §1, §2
Background: Isothermal titration calorimetry measures the heat released or taken up as one component is titrated into another.

For data set [5], the target named is Ac-Asp-Ala-Asp-Glu-F2Pmp-Leu-NH2. As to the kind of experiment: Isothermal titration calorimetry, binding of PTP1B and mutants to F2Pmp peptide. To be noted: ITC, 25° C. and pH 7.0; data from this study. On the procedure: (§3) FIG. 3 portrays calorimetric isothermal titration for the reaction of peptide Ac-Asp-Ala-Asp-Glu-F2Pmp-Leu-NH2 with PTP1B/D181A/Q262A. The upper graph depicts raw data for thirty 8-μl injections of the peptide (0.5 mM stock) into the isothermal cell containing 32 μM PTP1B/D181A/Q262A, at 4-min intervals and 25° C. Both the protein and the peptide were in 50 mM 3,3-dimethylglutarate buffer (I=0.15 M, pH 7.0) containing 1 mM DTT. The lower graph depicts an integration curve showing experimental points that were obtained by integration of the above peaks as plotted against the molar ratio of the peptide to PTP1B/D181A/Q262A within the reaction cell. The solid line corresponds to the best fit to the data according to the nonlinear, least-squares regression algorithm, ORIGIN (29).
(§4) All isothermal titration calorimetry experiments were performed using an MCS Isothermal Titration Calorimetry System from Microcal Inc. (Northampton, Mass.). […] The ionic strength of the buffer was adjusted to 0.15 M by addition of NaCl. Protein concentration in the calorimeter cell was 27-85 μM, while the ligand concentration in the syringe was 0.37-1 mM.
(§5) The PTP1B samples used in the isothermal titration calorimetry experiments were dialyzed completely against buffer. High-concentration stock solutions were prepared for ligands with distilled water, and adjusted to pH 7.0. Stock was diluted at least 26-fold with 50 mM 3,3-dimethylglutarate buffer before titration. Protein dilution during titration was determined by titration of buffer into the protein solution. […] The heat of ligand dilution was corrected by subtracting the average heat of injection after saturation.
(§6) The binding data were analyzed using ORIGIN software (29). Binding constant, K, and enthalpy change, ΔH, were used to calculate free energy change, ΔG, and entropy change, ΔS, according to equation [1]: −RTLnK=ΔG=ΔH−TΔS [1] where R is the gas constant and T is the absolute temperature.

For data set [6], the target named is T3, Ac-Asp-Ala-Asp-Glu-F2Pmp-Leu-NH2 (Homo sapiens, UniProt P18031, D181A/Q262A).
T3 construct: The catalytic domain of PTP1B (residues 1 to 321) was used for in vitro study; made in house; host or cells: E. coli (pT7-7 plasmids)
T3 sequence (P18031 1-321 D181A/Q262A): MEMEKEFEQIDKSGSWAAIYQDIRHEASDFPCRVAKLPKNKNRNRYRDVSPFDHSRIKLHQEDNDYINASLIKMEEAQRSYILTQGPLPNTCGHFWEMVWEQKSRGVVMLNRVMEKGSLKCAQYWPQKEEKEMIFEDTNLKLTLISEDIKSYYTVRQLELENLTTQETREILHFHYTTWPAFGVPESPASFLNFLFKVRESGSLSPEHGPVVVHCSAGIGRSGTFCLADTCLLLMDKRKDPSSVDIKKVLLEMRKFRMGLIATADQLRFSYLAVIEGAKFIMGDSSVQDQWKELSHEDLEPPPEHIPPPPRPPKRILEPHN
The data set is described as above. To be noted: ITC, pH 7.0, ionic strength 0.15 M, 25° C.; read-out: dissociation constant, Kd. On the procedure: as §3, §4, §5, §6

[ ]: non-standard residue; d: D form. F2Pmp = N[C@@H](Cc1ccc(C(F)(F)P(=O)(O)O)cc1)C(=O)O

The Km is the substrate concentration at which the rate is half of its maximum. As a reminder, the Kd is the constant that tells how readily two partners part at equilibrium.

B1: PTP1B/D181A/Q262A, catalytic domain (residues 1 to 321) (enzyme, human, UniProt P18031 1-321, looked up)
chain: T3 sequence (P18031 1-321 D181A/Q262A)
notes: range 1-321; Used in vitro (ITC, kinetics); also called PTP1B substrate-trapping double mutant
For B1, in data set [1], the “fold decrease in Km relative to D181A” value worked out at 33 fold and the “fold decrease in kcat relative to D181A” value came to 11 fold. In data set [1] (25° C. and pH 7.0), the Km came to 2.4 ± 0.5 µM and the kcat result is given as “(2.8 ± 0.1) × 10^−3 s^−1”. Further, in data set [2], the TΔS is 6.6 kcal/mol, the ΔG is -11.1 kcal/mol and the ΔH is -4.5 kcal/mol. In data set [3], the Km (hydrolysis of the EGFR 988-998 peptide, 25 C, pH 7.0) was found to be 51 µM. Besides, in data set [4], the “fold higher affinity than the D181A mutant” value is approximately 6 fold; the “fold lower Kd than wild-type PTP1B and the C215S mutant” value was approximately 30 fold. In data set [5], the Kd was determined as 6.8 ± 2.3 nM. In addition, the Kd in data set [6] came to 6.8 nM.
